The values below come from patent publication US20250382376A1 (FUDAN UNIVERSITY, published 2025).

The target in experiment [1] is T1, extracellular domain of human CD73 protein, C-terminus polyhistidine-tagged (human, UniProt P21589 27-547).
T1 construct: also the immunogen; also called CD73-ECD; human CD73-ECD
T1 sequence: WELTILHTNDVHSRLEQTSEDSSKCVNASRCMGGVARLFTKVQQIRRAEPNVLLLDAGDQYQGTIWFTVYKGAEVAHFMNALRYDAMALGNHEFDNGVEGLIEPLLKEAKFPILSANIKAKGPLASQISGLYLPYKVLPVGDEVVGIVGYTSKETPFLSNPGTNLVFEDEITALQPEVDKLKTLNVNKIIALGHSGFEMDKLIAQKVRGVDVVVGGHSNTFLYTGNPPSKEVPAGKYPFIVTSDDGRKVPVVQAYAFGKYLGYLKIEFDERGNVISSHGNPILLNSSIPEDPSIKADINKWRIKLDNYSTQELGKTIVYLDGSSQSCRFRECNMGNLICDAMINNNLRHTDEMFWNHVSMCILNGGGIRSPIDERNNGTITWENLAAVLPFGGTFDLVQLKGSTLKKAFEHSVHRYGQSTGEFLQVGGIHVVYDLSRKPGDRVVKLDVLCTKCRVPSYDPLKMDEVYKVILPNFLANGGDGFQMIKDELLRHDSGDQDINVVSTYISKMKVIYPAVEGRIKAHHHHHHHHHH
Briefly: ELISA, coated CD73-ECD, method of Example 3. On the procedure:
(§1) The CD73 protein extracellular region (CD73-ECD) was diluted to 1 μg/mL using the coating solution, and an ELISA plate was coated at 100 μL/well at 4° C. overnight. Excess antigens were washed away, and the plate was blocked with 1% BSA at room temperature for 2 hours. Then, 5-fold gradient dilutions of each monoclonal antibody were added at 100 μL/well and incubated at room temperature for 1 hour. Unbound antibodies were washed away, and an appropriate concentration of Staphylococcal protein A labeled with horseradish peroxidase was added at 100 μL/well and incubated at room temperature for 0.5 hours. Unbound secondary antibodies were washed away, and TMB color development solution was added to react for about 15 minutes. 1M HCL was added at 50 µL/well to terminate the color development reaction, and then the absorbance was measured at 450 nm and the data was analyzed.
(§2) Based on the above mutants, 5-E11ASCS was designed and prepared, and the CD73 antigen ELISA binding affinity test was performed according to the method of Example 3.
In general terms: An ELISA detects its analyte on a solid surface through an enzyme-linked reagent.

Experiment [2] deals with T1, extracellular domain of human CD73 …. The experiment can be described thus: ELISA on coated human CD73-ECD (the text rounds this value to 0.05 µg/mL). On the procedure:
as §1, §2

The target is the same in experiment [3]. Briefly: ELISA on CD73-ECD, 4 µL supernatant of antibody expression, first of two readings; PBS 0.19, 0.18. On the procedure: as §1
(§3) CD73 antigen ELISA binding affinity test was performed according to the method of Example 3.

The target is the same in experiment [4]. The experiment can be described thus: ELISA on CD73-ECD, 20 µL supernatant of antibody expression, first of two readings; PBS 0.19, 0.18. On the procedure: as §1, §3
Experiment [5] shares this target. Briefly: ELISA on CD73-ECD, 4 µL supernatant of antibody expression, second of two readings; PBS 0.19, 0.18.
Experiment [6] has the same target. Briefly: ELISA on CD73-ECD, 0.8 µL supernatant of antibody expression, first of two readings; PBS 0.19, 0.18. On the procedure:
as §1, §3

The target is the same in experiment [7]. The experiment can be described thus: ELISA on CD73-ECD, 100 µL supernatant of antibody expression, first of two readings; PBS 0.19, 0.18. On the procedure: as §1, §3
The target is the same in experiment [8]. Briefly: ELISA on CD73-ECD, 20 µL supernatant of antibody expression, second of two readings; PBS 0.19, 0.18. On the procedure: as §1, §3
For experiment [9] the target is unchanged. The experiment can be described thus: ELISA on CD73-ECD, 100 µL supernatant of antibody expression, second of two readings; PBS 0.19, 0.18.
For experiment [10] the target is unchanged. The experiment can be described thus: SPR as the filing names it (method of Example 2, ForteBio OCTET R2). On the procedure: Surface plasmon resonance (SPR) assay: Protein A sensor was used to immobilize the antibodies, with an immobilization height of about 1.5 nM. […] Affinity detection: equilibrium for 60 s, binding for 180 s, dissociation for 180 s, at a detection temperature of 25° C. Kinetic characterization analysis was performed using the ForteBio OCTET R2 system.
The affinity of the humanized antibody to the antigen was detected by the surface plasmon resonance (SPR) assay method in Example 2.
(In general: In BLI a coated tip is dipped into the sample, and binding shifts an interference pattern.)

Experiment [11] has the same target. The experiment can be described thus: ForteBio Octet (the filing calls it SPR), by the method of Example 2 according to the text; sheet prints 'Loading Sample ID: FDYKSD-02-His'; traces labelled 25, 12.5, 6.25, 3.13.

The EC50 is the concentration needed to bring the measured effect to its halfway point. A lower EC50 goes with higher potency in that assay. The Kd is the constant that tells how readily two partners part at equilibrium. A higher Kd goes with lower affinity. By koff is commonly meant the first-order rate constant of dissociation. The low end stands for slow dissociation, the high end for fast dissociation. In general, kon refers to the rate constant with which the complex forms. Read a low kon as slower complex formation.

B1: chimeric nanobody 5-E11 (Fc fusion)
VHH: ALQLVESGGGLVQPGGSLRLSCEVSGFTLDYYNIGWFRQAPGKEREGVSCSSNSGGSTYYADSVKGRFTISRDNAKNTVYLQMNSLKPEDTGVYYCAAYRGWHPSLDARVYDYWGQGTEVTVSS
notes: Human-alpaca chimeric antibody (VHH on hIgG1 Fc); Only the VHH is tied to the tested molecule; also called original antibody 5-E11
As for B1, the EC50 in experiment [1] was determined as 0.05 µg/mL; in experiment [2], 0.0536 µg/mL. In addition, the “ELISA reading (not named on the sheet)” value in experiment [3] amounted to 4.23; in [4], 4.19; in experiment [5] it was 4.17; in [6] it was 4.18; in experiment [7] it was 4.33; in experiment [8], 4.32. For the same molecule, the “ELISA reading (not named on the sheet)” value in experiment [9] is 4.23.

B2: chimeric nanobody 3-D7 (Fc fusion)
VHH: QRQLVESGGGLVQPGGSLRLSCAASGFLLDYYVIGWFRQAPGKEREGVSCISGSDRSTYYADSVKGRFTISRDNAKNTVYLQMNSLKPEDTAVYFCAADPSPVTVQAMCLPRFPVPYWGQGTQVTVST
notes: Human-alpaca chimeric antibody (VHH on hIgG1 Fc); Only the VHH is tied to the tested molecule; 37-39 exist for 3-D7-FC1/FC2/FC3; also called original antibody 3-D7
On to B2, for which binding in [10] was put at a Kd of 0.472 nM. In [11], this molecule showed a koff of 0.000588 s⁻¹ and a kon of 1.25e+06 M⁻¹ s⁻¹.
